The experiment concerns the target T1, human FIGNL1ΔN (fidgetin-like 1 in which the N-terminal 284 aa were deleted) (human, UniProt Q6PIW4 285-674).
T1 sequence: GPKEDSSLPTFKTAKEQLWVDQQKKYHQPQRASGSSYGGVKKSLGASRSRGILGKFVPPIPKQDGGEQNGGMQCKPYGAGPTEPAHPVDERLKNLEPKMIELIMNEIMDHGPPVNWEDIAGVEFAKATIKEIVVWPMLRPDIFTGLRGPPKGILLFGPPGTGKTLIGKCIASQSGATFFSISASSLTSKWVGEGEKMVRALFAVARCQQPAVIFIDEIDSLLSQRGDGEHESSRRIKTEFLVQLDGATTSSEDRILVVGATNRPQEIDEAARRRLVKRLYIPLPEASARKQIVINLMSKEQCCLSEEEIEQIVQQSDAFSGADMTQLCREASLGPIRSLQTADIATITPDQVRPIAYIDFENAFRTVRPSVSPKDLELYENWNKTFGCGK
In words: native gel or EMSA. (Mobility shift assays separate free from complexed probe on a gel.)

B1: human DMC1 (natural protein)
chain: MKEDQVVAEEPGFQDEEESLFQDIDLLQKHGINVADIKKLKSVGICTIKGIQMTTRRALCNVKGLSEAKVDKIKEAANKLIEPGFLTAFEYSEKRKMVFHITTGSQEFDKLLGGGIESMAITEAFGEFRTGKTQLSHTLCVTAQLPGAGGYPGGKIIFIDTENTFRPDRLRDIADRFNVDHDAVLDNVLYARAYTSEHQMELLDYVAAKFHEEAGIFKLLIIDSIMALFRVDFSGRGELAERQQKLAQMLSRLQKISEEYNVAVFVTNQMTADPGATMTFQADPKKPIGGHILAHASTTRISLRKGRGELRIAKIYDSPEMPENEATFAITAGGIGDAKE
As for B1, the binding result was “binds”.

B2: human RAD51 (natural protein)
chain: MAMQMQLEANADTSVEEESFGPQPISRLEQCGINANDVKKLEEAGFHTVEAVAYAPKKELINIKGISEAKADKILAEAAKLVPMGFTTATEFHQRRSEIIQITTGSKELDKLLQGGIETGSITEMFGEFRTGKTQICHTLAVTCQLPIDRGGGEGKAMYIDTEGTFRPERLLAVAERYGLSGSDVLDNVAYARAFNTDHQTQLLYQASAMMVESRYALLIVDSATALYRTDYSGRGELSARQMHLARFLRMLLRLADEFGVAVVITNQVVAQVDGAAMFAADPKKPIGGNIIAHASTTRLYLRKGRGETRICKIYDSPCLPEAEAMFAINADGVGDAKD
Regarding B2, the binding result is “binds”.
